Our source for the average length of MTs after 5 min of polymerization, on γ-tubulin-functionalized gold pads against solution without functionalized microchips and average length of MTs after 10 min of polymerization, on γ-tubulin-functionalized gold pads against solution without functionalized microchips values is patent publication US20110266675A1.

For the assay, the target named is microtubules assembled from fluorescein-modified bovine brain tubulin (α/β-tubulin) (bovine). In words: cell-based or functional assay.

Regarding “Glutathione S-Transferase (GST)-tagged γ-Tubulin fusion protein (from UniProt P23258 1-451)”, the average length of MTs after 5 min of polymerization, on γ-tubulin-functionalized gold pads against solution without functionalized microchips was determined as 1.68 micron and the average length of MTs after 10 min of polymerization, on γ-tubulin-functionalized gold pads against solution without functionalized microchips was 3.47 micron.
